The results in this text go back to the supplement of paper PMC12042874.

± gives the uncertainty stated by the source.

The nature of this data set: amyloid nucleation score (Sup35N fusion, yeast selection) (log enrichment); library NNK2; higher = more nucleation; inactive = no reads after selection. An outline of the steps:
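The nucleation score is a DiMSum log enrichment of output over input reads, centred on the mode score of non-aggregating sequences. Sequences under 100 input reads were excluded, and reads came from Illumina sequencing of plasmid inserts. Psi-negative yeast expressing Sup35N fused to peptides of 20 random codons were induced with 100 μM copper sulfate for 24 hours and grown 7 days at 30°C on medium lacking adenine and uracil. Random libraries had three technical output replicates.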
Take ITSFKWVLKGSWCKGRESKF: the amyloid nucleation score came out at 4.87 ± 0.068.

IVARHPIGFQLVWGHWLTVA showed an amyloid nucleation score of 0.412 ± 0.26.

IVCLAVSLSSDRTE: the amyloid nucleation score was 6.599 ± 0.04.

The substance IVDHVYCIVILDLEHFFYNE returned an amyloid nucleation score of 5.02 ± 0.083.

Turning to IVFSDLTITF, the amyloid nucleation score is 3.29 ± 0.11.

For the substance IVHILYECGAFRLPRGLY, the amyloid nucleation score was -0.538 ± 0.38.

With IVHLSHQG, the amyloid nucleation score is -1.25 ± 0.62.

Regarding IVIPSSK, the amyloid nucleation score result was “inactive”.

IVLEMLKVTRVGPKQIGWPW: the amyloid nucleation score was 0.696 ± 0.38.

In turn, IVLQSGR had an amyloid nucleation score of -1.12 ± 0.63.

IVMFQNFVQMDVNYCCFLEV registered an amyloid nucleation score of 6.768 ± 0.04.

Substance IVNINYCFTFKVPNHNNSMK had an amyloid nucleation score of 7.923 ± 0.04.

IVNTELVLVDKLDSCIVRYN registered an amyloid nucleation score of 3.02 ± 0.17.

As for IVPSQH, the amyloid nucleation score was 0.271 ± 0.44.

For the substance IVSSGPIKLNTSCFRTAYML, the amyloid nucleation score was -0.854 ± 0.63.

The substance IVSVYATAIGGVRFRECCIG had an amyloid nucleation score of -0.09 ± 0.34.

As to IVTAVITM, the amyloid nucleation score result is “inactive”.

For the substance IVVRL, the amyloid nucleation score amounted to 0.639 ± 0.41.

The substance IVYFGQVIIFMVMSNSVCSL gave an amyloid nucleation score of -1.38 ± 1.

In the case of IVYWSSEWRKPGAHDTLD, the amyloid nucleation score amounted to 0.451 ± 0.24.

In turn, IWSQW yielded an amyloid nucleation score of -0.134 ± 1.1.

On to IWSSHRVSHGVILESGEVWA, for which the amyloid nucleation score is -0.25 ± 0.42.

IWTRLGYRQVPRYSAIFSAV registered an amyloid nucleation score of 0.136 ± 0.37.

In turn, IWYESWEQHGKDVQVPMVTD yielded an amyloid nucleation score of 0.623 ± 0.22.

IYACSCLIKVDFYEAIPIWV: the amyloid nucleation score result is “inactive”.

Substance IYEGIIVIFSDTGTLWRYWI returned an amyloid nucleation score of -2.09 ± 0.54.

Turning to IYGSYVLDLVGVNLAGKGEN, the amyloid nucleation score is -0.347 ± 1.

The substance IYHYPKRREGVIK came in with an amyloid nucleation score of 0.224 ± 0.56.

For IYKQLMVCHKCSDSAVTGYQ, the amyloid nucleation score turned out to be 6.14 ± 0.075.

Consider IYLQGAGLL, for which the amyloid nucleation score result was “inactive”.

In turn, IYLSTCTYF gave an amyloid nucleation score of 0.155 ± 0.49.

With IYRDPHNYCM, the amyloid nucleation score was -0.751 ± 1.1.

IYRGESIIWVNNSWIEDSLR showed an amyloid nucleation score of 1.56 ± 0.12.

As for IYRRPMENI, the amyloid nucleation score is -0.389 ± 0.36.

The substance IYRTYYGMNACLINLCMFDN yielded an amyloid nucleation score of 7.734 ± 0.055.

IYVGIHNLILMTSTLGVNKR had an amyloid nucleation score of 6.06 ± 0.041.

Take IYWLKTPMLLYWGSPCPRNA: the amyloid nucleation score was determined as 0.058 ± 1.

Consider KAFFFPQFCCIYGLGM, for which the amyloid nucleation score came out at 8.903 ± 0.035.

Turning to KAKWFNFLFYNFLQYACLSQ, the amyloid nucleation score was found to be 1.37 ± 0.087.

Regarding KAKYTTILCCIDRCGCIGQY, the amyloid nucleation score was found to be 8.613 ± 0.046.

Consider KARSRLLVFYKYTKGIWAQS, for which the amyloid nucleation score is -0.147 ± 1.1.

Substance KATRTFY returned an amyloid nucleation score of 0.495 ± 0.34.

Turning to KATSCFLDWCGCPWHLMALD, the amyloid nucleation score came to 0.496 ± 0.29.

Take KAWFLESSKYSYRSWFR: the amyloid nucleation score is -0.641 ± 0.38.

KCILDRVRGTGLGIMKLKRG registered an amyloid nucleation score of 0.306 ± 0.65.

KCSKLRGYTCIMLSIGCLNY registered an amyloid nucleation score of 2.71 ± 0.07.

Regarding KCSSCEF, the amyloid nucleation score came out at 0.768 ± 0.47.

Take KCWLLGHWEDFCTLSKMERN: the amyloid nucleation score entry is “inactive”.

Consider KDCLTVVMLSLVHLRPCY, for which the amyloid nucleation score result was “inactive”.

With KDGKALT, the amyloid nucleation score entry is “inactive”.

KDLPFGTYGNGGAGSRTMRH showed an amyloid nucleation score of 0.19 ± 0.27.

KELYTSVSQGLCRYSISSCR: the amyloid nucleation score was -0.786 ± 0.35.

KFACCRYVGVYYKTTYSILR gave an amyloid nucleation score of -1.17 ± 0.49.

KFCSRVFSQCMSYLSCLLDF had an amyloid nucleation score of 0.17 ± 0.74.

KFKLLMTSRWDTFNVADTYD gave an amyloid nucleation score of 5.04 ± 0.042.

KFYIPSDLVLVRCPST showed an amyloid nucleation score of -0.883 ± 1.1.

Regarding KGDQKSTFCVRPFWESPNIV, the amyloid nucleation score is -0.046 ± 0.74.

The substance KGLWTISVSLWVV gave an amyloid nucleation score of 0.112 ± 0.18.

In turn, KGRFHNLTEPGRVQEKE yielded an amyloid nucleation score of -1.32 ± 0.49.

KHLRFASEVNFSARVPPPWL: the amyloid nucleation score was -0.229 ± 0.33.

As for KHSEDSYCFMSGLSGVICCK, the amyloid nucleation score was found to be 0.932 ± 0.19.

With KHSIMRRKRGFPATKR, the amyloid nucleation score worked out at 0.722 ± 0.43.

Substance KILNCTGSQVKS yielded an amyloid nucleation score of -0.032 ± 0.25.

Turning to KILSYASLSAGSFLVQ, the amyloid nucleation score is -0.531 ± 1.1.

The substance KIRASVNSSRFFWFDAS showed an amyloid nucleation score of 2.96 ± 0.13.

KISFVALAVDARYGWCLFHY had an amyloid nucleation score of 0.358 ± 0.24.

With KISSLLGWLWRITIRRLGRA, the amyloid nucleation score was determined as 0.617 ± 0.65.

On to KISSMAVI, for which the amyloid nucleation score stood at 0.069 ± 0.48.

KKKDSAKLLVTE: the amyloid nucleation score is -0.409 ± 0.76.

On to KLAVCLCGSKHNDLGYRGDP, for which the amyloid nucleation score result is “inactive”.

As to KLFQNHLIINCPAMVISNEQ, the amyloid nucleation score was 7.609 ± 0.057.

KLGKPFARRKFCICNSQWVG yielded an amyloid nucleation score of -0.743 ± 0.31.

The substance KLGWTRLTPNVAHFHLIVGL yielded an amyloid nucleation score of 0.583 ± 0.4.

Take KLGYHLSMIFVFRNVVCPYI: the amyloid nucleation score was -0.711 ± 1.1.

KLHQNSKGCPGVLPVDGLKM yielded an amyloid nucleation score of 0.82 ± 0.56.

Regarding KLKCHMSESLKWIGAVKSRR, the amyloid nucleation score is 0.776 ± 0.43.

Substance KLKSVRDLSCLSYHSDIKVK gave an amyloid nucleation score of 3.58 ± 0.055.

For KLLPEWSWKG, the amyloid nucleation score was determined as 0.428 ± 0.39.

For the substance KLNLGGCLMSRVYC, the amyloid nucleation score came to 0.345 ± 0.16.

In turn, KLPIRLMTCASNFNLGNCWL returned an amyloid nucleation score of 6.003 ± 0.038.

Turning to KLRFYIYCFILLKCMTGART, the amyloid nucleation score result was “inactive”.

KLSWRIRA returned an amyloid nucleation score of 0.403 ± 0.42.

KMAMTVLILPYVPGQLRLTE: the amyloid nucleation score is 3.12 ± 0.1.

For the substance KNFFSRRTW, the amyloid nucleation score came to 2.98 ± 0.14.

Consider KNGATLSCYILYSCGLMASV, for which the amyloid nucleation score was -2.34 ± 0.62.

Turning to KNNSFWGISLTGLLGYIYTR, the amyloid nucleation score is -0.627 ± 1.

The substance KNRRFT came in with an amyloid nucleation score of -0.493 ± 1.1.

The substance KNSCSMYVMMCGSQVLGLVS showed an amyloid nucleation score of 7.75 ± 0.084.

As to KNTMIGSLRLVIYFSSGDKV, the amyloid nucleation score amounted to 7.17 ± 0.034.

KPLLVN showed an amyloid nucleation score of 0.271 ± 0.46.

KPSKYPVYLLGVVKVQVDYD registered an amyloid nucleation score of -0.849 ± 1.1.

KQFDMDAWLTWSRMVFMSPV came in with an amyloid nucleation score of 0.044 ± 0.39.

KQLKWFCITK showed an amyloid nucleation score of -0.862 ± 0.45.

KQVNPPIA displayed an amyloid nucleation score of -0.541 ± 1.1.

In turn, KRDRIAFPMEIDDIIKAWM came in with an amyloid nucleation score of -0.929 ± 0.55.

The substance KRFGLVCVIQQAQKWVNGTG registered an amyloid nucleation score of 0.179 ± 0.51.

Turning to KRGSAEFNQLDHYECTRYEC, the amyloid nucleation score entry is “inactive”.

KRHNR showed an amyloid nucleation score of 0.846 ± 0.48.

With KRKISDSSPRDRWVALLKKL, the amyloid nucleation score came out at 2.15 ± 0.15.

With KRLVGVTAMMCSFFLYLFLE, the amyloid nucleation score was 0.859 ± 0.35.

For the substance KRTWRFFYRL, the amyloid nucleation score result is “inactive”.

In turn, KRYTHRCKPFTLHHLPVDAR displayed an amyloid nucleation score of 1.25 ± 0.33.

The substance KSCYIAV returned an amyloid nucleation score of -0.066 ± 0.45.

For KSGGDDLESSWRCWASMGLM, the amyloid nucleation score was determined as 0.182 ± 0.31.

KSICARVFTIQMRNVSVQSS came in with an amyloid nucleation score of 0.158 ± 0.43.

For KSLDYFSECRDSPNML, the amyloid nucleation score is -0.757 ± 0.48.

As for KSLKCFHLVRFTFS, the amyloid nucleation score is -0.492 ± 0.36.

The substance KSLYCVNFLCRPECANPSSS yielded an amyloid nucleation score of 6.592 ± 0.029.

With KSMFRTNLYIIILQSSTRFQ, the amyloid nucleation score was -1.06 ± 0.76.

As to KSRFIFRVSVLDPRASVAWL, the amyloid nucleation score result is “inactive”.

In the case of KSSSAVIW, the amyloid nucleation score was -0.045 ± 0.53.

The substance KSTATSYVMPK registered an amyloid nucleation score of -0.072 ± 0.25.

On to KSVQDNDMSPACRAD, for which the amyloid nucleation score was 0.804 ± 0.45.

On to KSVTDSL, for which the amyloid nucleation score is 0.878 ± 0.44.

In the case of KSYLWASAAVEGNCYNPVNR, the amyloid nucleation score is -0.195 ± 0.48.

In turn, KTFTPSIELGYMGHCDCDT returned an amyloid nucleation score of -1.03 ± 0.45.

KTIQVGQVA had an amyloid nucleation score of 1.24 ± 0.29.

With KTIRRDVCIVVLSLQSDLNM, the amyloid nucleation score was 5.62 ± 0.069.

In the case of KTLTVFAISYC, the amyloid nucleation score is 0.482 ± 0.55.

On to KTNHEELKA, for which the amyloid nucleation score entry is “inactive”.

Substance KTPVGYTRRGSPFTR yielded an amyloid nucleation score of 1.16 ± 0.33.

Substance KTREFNEQIVYGASVYVYQG displayed an amyloid nucleation score of 0.672 ± 0.43.

For the substance KTRLPGVL, the amyloid nucleation score result is “inactive”.

With KVECEVWVRWVRCDGCAAGK, the amyloid nucleation score amounted to 1.22 ± 0.2.

Substance KVFLFIFGLLTESPGCDQSP came in with an amyloid nucleation score of -0.536 ± 0.4.

With KVIWIRCLFLYMCWAAHG, the amyloid nucleation score is -0.557 ± 0.78.

In turn, KVLMLQHPIGYLLNILTMS had an amyloid nucleation score of -0.017 ± 0.41.

For the substance KVQHLQR, the amyloid nucleation score came out at 0.403 ± 0.26.

KVRDCIMPRCRGRVCICNYG: the amyloid nucleation score is -0.29 ± 0.25.

For KVRTLINLRSRVTLRYDLSI, the amyloid nucleation score is -0.237 ± 0.24.

For KVSDRVGLEPKVCAQRRRNL, the amyloid nucleation score came to 0.025 ± 0.27.

Turning to KVSVTMHLAKMDFCRLWG, the amyloid nucleation score was 7.11 ± 0.046.

Turning to KVYSKCFNGFRS, the amyloid nucleation score is 0.164 ± 0.8.

With KWDWICSVRCRVRSAYQMSN, the amyloid nucleation score result is “inactive”.

As to KWIMWLDRYPDTSPCILYAQ, the amyloid nucleation score turned out to be 4.42 ± 0.055.

Take KYCCWLRCGLIYNWGGNQDV: the amyloid nucleation score worked out at 5.14 ± 0.064.

The substance KYGAPS gave an amyloid nucleation score of -0.029 ± 1.1.

On to KYMLLCSICIFRNQGKKFRL, for which the amyloid nucleation score is 8.384 ± 0.052.

As for KYNLRDSNCSTCMFGSSRVS, the amyloid nucleation score was determined as 4.251 ± 0.04.

For KYRKSGSERTRARTGVCTVW, the amyloid nucleation score came out at 0.585 ± 0.66.
